± gives the standard deviation of the averaged measurements.
test system: ATP; assay: switch fluorescence ratio, 500 uM ATP over buffer (Cy3 cluster intensity, sum of 5 cycles each) (fold (ratio)); higher = stronger signal-on switching upon ATP binding; sequences stand for … in TCGTCGGCAGCGTCAGATGTGTATAAGAGACAGTTTTTTTTTTTTTTTTTTTTTTTTT…TC; conditions: aptamer strand: ATP DNA aptamer (quencher-CACCTGGGGGAGTATTGCGGAGGAAGG + anchor), 100 nM annealed; ATP concentration: 500 uM
Method in brief: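 For every switch-domain sequence, the fluorescence ratio is the mean of per-cluster values, each being summed target-cycle Cy3 intensity over summed buffer-cycle Cy3 intensity. Clusters outside 100-1000 RFU were excluded. On a modified Illumina MiSeq flow-cell, the Cy3-labelled switching-strand clusters were annealed to 100 nM quencher-labelled ATP aptamer, imaged in selection buffer and then after 15 min with 500 uM ATP at 22 °C. Five such cycles were run, with NaOH stripping and re-annealing between them.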
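Note: ATP exposure 15 min at 22 °C before imaging.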

| Sequence | switch fluorescence ratio |
| --- | --- |
| AAGCGGAGAT | 1.02 ± 0.0065 |
| ACATTCATCG | 1.06 ± 0.034 |
| GCTGTGGCT | 0.972 ± 0.01 |
| GTTACAAGCG | 0.994 ± 0.018 |
| CGTTATGGGA | 0.976 ± 0.022 |
| AGAAGTCGTG | 1.02 ± 0.012 |
| GGTAGTCGGG | 0.968 ± 0.014 |
| TTTCAGTGTT | 1.05 ± 0.099 |
| AATCGCGGTA | 1.05 ± 0.033 |
| CGTTAGAGAG | 0.99 ± 0.03 |
| TTTAATTTTC | 1.05 ± 0.14 |
| GGCAGACTTC | 1.02 ± 0.041 |
| GAAGGTCGGC | 0.994 ± 0.036 |
| TTTACTTA | 1.0157 ± 0.00064 |
| ATGCAGGGCT | 0.962 ± 0.041 |
| TGAAATGATC | 1.001 ± 0.0098 |
| GGCAGTGTAC | 1.18 ± 0.12 |
| TGCTGGGGGG | 0.981 ± 0.023 |
| TCTAGTCCGA | 1.003 ± 0.009 |
| ATTTCTAGGG | 1.027 ± 0.0041 |
| CAAGGCTGCA | 1.04 ± 0.06 |
| TAACGGGAGG | 0.998 ± 0.017 |
| GGGATGGCAT | 0.995 ± 0.034 |
| GTTTTTTAGT | 0.988 ± 0.023 |
| GACTTGATTA | 0.9719 ± 0.0062 |

| Sequence | switch fluorescence ratio |
| --- | --- |
| TTTAATATTT | 1.04 ± 0.077 |
| CAATGAGTAT | 1.011 ± 0.003 |
| AATGGCGGCA | 1.06 ± 0.078 |
| TTTATGCTTG | 0.974 ± 0.044 |
| TATTGACGGA | 1.006 ± 0.0096 |
| CTTGTAGCAG | 1.09 ± 0.021 |
| GAGGCGTGTG | 0.985 ± 0.029 |
| GGGTTCCAGG | 1.26 ± 0.098 |
| ATGCTATCGT | 1.02 ± 0.014 |
| TAGATTGTTT | 0.998 ± 0.021 |
| AAATCGAGCT | 1.04 ± 0.049 |
| GCTTATCGGT | 0.996 ± 0.018 |
| TGCTCTTTGG | 1 ± 0.025 |
| TTATCGTTTG | 1.02 ± 0.043 |
| AGTTTAAAAC | 1.02 ± 0.0077 |
| TTTGGGTCTG | 0.992 ± 0.026 |
| GTTTTTAATG | 0.969 ± 0.011 |
| ACTTGGACAT | 1.04 ± 0.018 |
| TTAATGATTA | 0.994 ± 0.034 |
| AAGGGCTCAA | 1.02 ± 0.011 |
| GAGTTCATAG | 1 ± 0.013 |
| TGACCGCGGA | 1.11 ± 0.039 |
| GTCTTGACGA | 0.996 ± 0.019 |
| AGAAGGCTGC | 0.978 ± 0.0071 |
| TAATGAGAAC | 0.974 ± 0.014 |

| Sequence | switch fluorescence ratio |
| --- | --- |
| TTTACAACGC | 1.05 ± 0.012 |
| TATAGGGGTG | 1.03 ± 0.039 |
| TGGGGGGAGG | 1 ± 0.036 |
| TCTGGCCGCG | 1.015 ± 0.0075 |
| TTTAAGTCTA | 0.992 ± 0.039 |
| TGCTTGAGGG | 1.004 ± 0.0097 |
| CAGGGGTGAT | 1.18 ± 0.19 |
| TTGTGATGTC | 1.031 ± 0.0048 |
| GGGCATGAAG | 1.016 ± 0.0066 |
| CGGTGCGATT | 1.03 ± 0.019 |
| CCGTTGAGCG | 1.03 ± 0.03 |
| TTTGAGACAG | 0.994 ± 0.026 |
| TCATCGGGG | 0.947 ± 0.027 |
| CCTGCTCATC | 1.99 ± 0.22 |
| TACAGAGGCA | 1.02 ± 0.031 |
| GTGGGGATTA | 1 ± 0.018 |
| TAAGCGGGTC | 1 ± 0.018 |
| ACTGGGTAGA | 1.0278 ± 0.00073 |
| TGTGCCTGTT | 1.008 ± 0.0018 |
| TTAATAGATT | 0.998 ± 0.021 |
| TTTGGCCGCT | 0.985 ± 0.011 |
| GGTACGTCGG | 0.979 ± 0.048 |
| TTCGGGGCGC | 1.03 ± 0.065 |
| TCGGGGTGTG | 0.988 ± 0.031 |
| GGGGAGAGGC | 1.08 ± 0.11 |

| Sequence | switch fluorescence ratio |
| --- | --- |
| ATAAGGGATG | 0.998 ± 0.017 |
| TTGGGACAAT | 1.04 ± 0.044 |
| AGAGTCAGGC | 1.07 ± 0.044 |
| GGTAAGTGTT | 1.003 ± 0.0044 |
| CAGGCTAAGA | 1.026 ± 0.0047 |
| GAAAAAAGAT | 1.02 ± 0.014 |
| GACATCAGAG | 1.02 ± 0.053 |
| GATGGACTAA | 1.02 ± 0.018 |
| AAATCGGGGG | 1.05 ± 0.084 |
| GTTTGGCATG | 1.003 ± 0.0051 |
| GCGAGGGGTG | 1.02 ± 0.048 |
| GCTGGGATAG | 1.01 ± 0.019 |
| GGGCGCCATA | 0.948 ± 0.015 |
| ATAAGGGGTT | 0.993 ± 0.039 |
| CGATGGTAAG | 0.972 ± 0.011 |
| AAGTTATAAC | 0.956 ± 0.067 |
| GGAATTGGTT | 1.01 ± 0.061 |
| CGTTTGTCCT | 0.9907 ± 0.0036 |
| TGCAGTGATC | 1.11 ± 0.056 |
| AGTGGCTATC | 1.01 ± 0.018 |
| GCGTCAATTG | 1.02 ± 0.035 |
| ATCGACATAT | 1.043 ± 0.0031 |
| TAGGTCGCCA | 1.04 ± 0.011 |
| GTAATATTAT | 0.974 ± 0.032 |
| CCGGCTTGCT | 1.03 ± 0.036 |

| Sequence | switch fluorescence ratio |
| --- | --- |
| AGTCAGTGAC | 1.009 ± 0.0026 |
| TGTTTGGTCA | 0.976 ± 0.065 |
| TTCATTGGGG | 0.99 ± 0.018 |
| AGCAGCGGGC | 0.997 ± 0.043 |
| GGGTGTACGG | 1.04 ± 0.024 |
| TCATGTAGAA | 1.01 ± 0.02 |
| TGGGGATTGC | 1.02 ± 0.048 |
| CGAAATGGCA | 1.03 ± 0.045 |
| CGGTCAGGGA | 1.01 ± 0.037 |
| TTGGGCAAAA | 0.985 ± 0.065 |
| GGGGGGGTCT | 0.973 ± 0.044 |
| TTAGGGTCT | 1.01 ± 0.022 |
| CTAGGGGTAC | 1.16 ± 0.17 |
| CTTGTTAGGA | 1 ± 0.012 |
| AGTGTGATCA | 0.9859 ± 0.008 |
| TATGAGGAGT | 0.982 ± 0.015 |
| ATGGGAACGG | 0.994 ± 0.017 |
| CCGGATTATA | 1.046 ± 0.0059 |
| TGGCTCAGTC | 0.997 ± 0.044 |
| TGGACATGGT | 0.9856 ± 0.005 |
| TCCACGGATG | 1.04 ± 0.047 |
| GGTACTGGAC | 1.087 ± 0.0021 |
| GTGCCTTTGC | 1.11 ± 0.067 |
| TCAAGAAATC | 0.983 ± 0.091 |
| TAGAATTGGT | 0.983 ± 0.016 |

| Sequence | switch fluorescence ratio |
| --- | --- |
| GGGACTGGGT | 0.999 ± 0.012 |
| AAGGCAAGTG | 0.989 ± 0.054 |
| TCGGCCGGGG | 1.02 ± 0.015 |
| CATTGGGGGG | 0.99 ± 0.038 |
| TAATGATTGT | 0.982 ± 0.042 |
| AGGCTTGCCA | 0.9991 ± 0.0016 |
| AGAGAAGACC | 1 ± 0.028 |
| TTATATTCGC | 1.02 ± 0.084 |
| GGGGGATGGA | 1.0016 ± 0.0002 |
| ACATAGGTCA | 1.02 ± 0.022 |
| TCTCCGAGTG | 1.45 ± 0.17 |
| ATGAATGTTA | 1.006 ± 0.0075 |
| TATTAAGATA | 0.987 ± 0.043 |
| AAATTAACAT | 1.08 ± 0.13 |
| TGAAAGTTTT | 0.971 ± 0.025 |
| CTCGGGGTTT | 0.998 ± 0.038 |
| AAAGATAGAT | 1.002 ± 0.0027 |
| CTGAGCTTTC | 1.29 ± 0.15 |
| TTGATTTTTG | 1.01 ± 0.03 |
| TCACATTAAC | 1.04 ± 0.066 |
| ATATAGGTTG | 0.974 ± 0.051 |
| AAGCATAGTC | 1.06 ± 0.036 |
| GAGGTAGGGA | 1.06 ± 0.13 |
| TTCATATAGG | 0.984 ± 0.021 |
| AAGAAGCTTT | 1.27 ± 0.38 |

| Sequence | switch fluorescence ratio |
| --- | --- |
| ACTTAGGAGA | 1.01 ± 0.048 |
| TAAAGGTTGA | 1.01 ± 0.012 |
| TGGGGGAAAA | 0.986 ± 0.01 |
| AAAGGCCGTC | 1.04 ± 0.012 |
| ATAGATAGCC | 0.96 ± 0.015 |
| CAGAGATGGG | 0.9997 ± 0.0049 |
| TACGGCGTAC | 1.08 ± 0.051 |
| AGTTTGGGT | 0.985 ± 0.032 |
| CACTGCCTGC | 1.08 ± 0.036 |
| TGTTTTAGTG | 0.994 ± 0.021 |
| ATCGTGGGAT | 1.01 ± 0.0081 |
| GTTGTGGGTT | 0.976 ± 0.022 |
| AGGTTCATTA | 1.01 ± 0.023 |
| GTAGTGACGT | 0.975 ± 0.044 |
| GGGGGTGTCA | 0.968 ± 0.0099 |
| ATGTATTTTT | 1 ± 0.031 |
| TTGGATTTTG | 0.978 ± 0.043 |
| CTTCCTATTG | 1.08 ± 0.046 |
| TGGGGAAGAG | 1.02 ± 0.027 |
| GACATTTGGA | 1.017 ± 0.0066 |
| CCTGTAAATG | 1.15 ± 0.21 |
| TAGTGTATCG | 0.993 ± 0.045 |
| CGGTGGGGGA | 0.986 ± 0.025 |
| CGGGGGTCTT | 1 ± 0.021 |
| GGGTGACGCG | 1.01 ± 0.022 |

| Sequence | switch fluorescence ratio |
| --- | --- |
| GCCCTCCAGA | 1.14 ± 0.13 |
| GGGGTGGTTA | 0.9948 ± 0.005 |
| CTTTTTATGA | 1.01 ± 0.027 |
| TATATTCTTA | 1 ± 0.065 |
| TATGTTCACG | 0.9924 ± 0.0042 |
| TGCTGTTCTG | 1.032 ± 0.0019 |
| TAAGTTTGCA | 1.003 ± 0.0077 |
| TACTATTGGA | 1.01 ± 0.021 |
| TCACGCTGTG | 1.01 ± 0.036 |
| ACTCCAATGG | 1.85 ± 0.12 |
| CCCAGTTTGG | 1.01 ± 0.015 |
| CGAAAATATC | 0.989 ± 0.023 |
| AGTTTGGGGA | 0.979 ± 0.015 |
| GGGGTGTCGG | 1.05 ± 0.14 |
| AAGGTGTCGA | 0.967 ± 0.019 |
| AGGTATAAGG | 1.02 ± 0.019 |
| TCCGAATTGG | 1.05 ± 0.022 |
| GCCGGCCGGA | 1.02 ± 0.02 |
| TTAATTCTAC | 1.039 ± 0.0063 |
| GCTCCCTGAG | 1.056 ± 0.0076 |
| TAGTAAGGGG | 0.969 ± 0.051 |
| TTCTTACGTC | 1 ± 0.011 |
| GGTCGGGGGA | 0.99 ± 0.061 |
| TTTCCTTTGT | 1.01 ± 0.049 |
| TTTTTACTGG | 1 ± 0.03 |
